Tests used:
[1] = tested on: lung cancer cells (No. B18); assay: Effects of different factors added to basic medium BM on proliferation of primary lung cancer cells; format: cell-based, human; settings: factor added to BM at the concentrations of Table 3; 12 days of culture; FIGS. 1A-1D
Experimental: (§1) Extracellular matrix gel (Matrigel®) (manufactured by Corning) was diluted with serum-free DMEM/F12 medium at a ratio of 1:100 to prepare an extracellular matrix diluent. The extracellular matrix diluent was added to a 48-well culture plate with 500 μl/well to completely cover the bottom of the wells of the culture plate. The culture plate was let stand for 1 hour in a 37° C. incubator. After 1 hour, the extracellular matrix diluent was removed to provide a Matrigel-coated plate.
Preparation of basic medium (abbreviated as BM): BM was prepared by adding 0.2 vol. % of Primocin (purchased from Invivogen, with a concentration of 50 mg/ml) to the commercial DMEM/F-12 medium to provide a final concentration of 100 μg/ml.
Next, different kinds and concentrations of additive factors (Table 3) were added to the basic medium (BM), so as to prepare culture mediums for lung cancer epithelial cells containing different additive components.
The culture mediums with different components were added at a volume of 500 μl/well to 48-well plates which were coated with extracellular matrix gel (Matrigel). Lung cancer cells (No. B18) isolated from lung cancer tissues according to the same method as described in Example 1 were inoculated at a cell density of 2×10^4 cells/cm^2 in the above-mentioned 48-well culture plates which were coated with Matrigel. […]

[2] = tested on: lung cancer epithelial cells (Sample No. B26); assay: Effects of different concentrations of the additive factors on proliferation of primary lung cancer cells; format: cell-based, human; settings: added to No. 8 medium lacking the factor; cell number ratio to Blank Control; FIGS. 3A-3H
Experimental: as §1, with “(Matrigel®)” for “(Matrigel®) (manufactured by Corning)”, “200” for “500”
No. 8 culture medium for primary lung cancer epithelial cells was prepared.
Lung cancer epithelial cells derived from cancer tissues were isolated from the cancer tissue of a lung cancer patient (Sample No. B26) using the same method as in Example 1. Next, lung cancer epithelial cells derived from cancer tissues were counted with a flow imaging counter (JIMBIO FIL, Jiangsu Jimbio Technology Co., Ltd.) to get the total number of cells. Then, the cells were inoculated at a density of 4×10^4 cells/cm^2 in a 48-well plate which was coated with Matrigel®. […] The centrifuged cell pellet was resuspended in the basic medium BM and the cells were counted with a flow imaging counter (JIMBIO FIL, Jiangsu Jimbio Technology Co., Ltd.) to get the total number of cells. […]

B1: epidermal growth factor: growth factor from Sino Biological Inc. (protein, UniProt P01133 23-1207, looked up)
Pro-epidermal growth factor: PQHWSCPEGTLAGNGNSTCVGPAPFLIFSHGNSIFRIDTEGTNYEQLVVDAGVSVIMDFHYNEKRIYWVDLERQLLQRVFLNGSRQERVCNIEKNVSGMAINWINEEVIWSNQQEGIITVTDMKGNNSHILLSALKYPANVAVDPVERFIFWSSEVAGSLYRADLDGVGVKALLETSEKITAVSLDVLDKRLFWIQYNREGSNSLICSCDYDGGSVHISKHPTQHNLFAMSLFGDRIFYSTWKMKTIWIANKHTGKDMVRINLHSSFVPLGELKVVHPLAQPKAEDDTWEPEQKLCKLRKGNCSSTVCGQDLQSHLCMCAEGYALSRDRKYCEDVNECAFWNHGCTLGCKNTPGSYYCTCPVGFVLLPDGKRCHQLVSCPRNVSECSHDCVLTSEGPLCFCPEGSVLERDGKTCSGCSSPDNGGCSQLCVPLSPVSWECDCFPGYDLQLDEKSCAASGPQPFLLFANSQDIRHMHFDGTDYGTLLSQQMGMVYALDHDPVENKIYFAHTALKWIERANMDGSQRERLIEEGVDVPEGLAVDWIGRRFYWTDRGKSLIGRSDLNGKRSKIITKENISQPRGIAVHPMAKRLFWTDTGINPRIESSSLQGLGRLVIASSDLIWPSGITIDFLTDKLYWCDAKQSVIEMANLDGSKRRRLTQNDVGHPFAVAVFEDYVWFSDWAMPSVMRVNKRTGKDRVRLQGSMLKPSSLVVVHPLAKPGADPCLYQNGGCEHICKKRLGTAWCSCREGFMKASDGKTCLALDGHQLLAGGEVDLKNQVTPLDILSKTRVSEDNITESQHMLVAEIMVSDQDDCAPVGCSMYARCISEGEDATCQCLKGFAGDGKLCSDIDECEMGVPVCPPASSKCINTEGGYVCRCSEGYQGDGIHCLDIDECQLGEHSCGENASCTNTEGGYTCMCAGRLSEPGLICPDSTPPPHLREDDHHYSVRNSDSECPLSHDGYCLHDGVCMYIEALDKYACNCVVGYIGERCQYRDLKWWELRHAGHGQQQKVIVVAVCVVVLVMLLLLSLWGAHYYRTQKLLSKNPKNPYEESSRDVRSRRPADTEDGMSSCPQPWFVVIKEHQDLKNGGQPVAGEDGQAADGSMQPTSWRQEPQLCGMGTEQGCWIPVSSDKGSCPQVMERSFHMPSYGTQTLEGGVEKPHSLLSANPLWQQRALDPPHQMELTQ
modifications: Pro-epidermal growth factor
effect on cell proliferation (ratio of number of cells to that in basic medium BM) [1]: certain promoting effects on cell proliferation in specific concentration ranges | amount in the culture medium, most preferably [2]: 20 ng/mL

Source: patent publication US20240392251A1, “CULTURE MEDIUM AND CULTURE METHOD FOR LUNG CANCER EPITHELIAL CELLS, AND APPLICATION THEREOF” (PRECEDO PHARMACEUTICALS CO., LTD, priority 2021, published 2024)
